Source: article doi:10.1101/2021.07.02.450967 (bioRxiv, 2021)
Values joined by “and” are separate entries in the source; they are usually repeats but may differ in a detail not shown here. Equal values may be shown once.

Molecular target: T1, SOX7, made in the cell-free protein production system (UniProt Q9BT81 1-388)
T1 sequence: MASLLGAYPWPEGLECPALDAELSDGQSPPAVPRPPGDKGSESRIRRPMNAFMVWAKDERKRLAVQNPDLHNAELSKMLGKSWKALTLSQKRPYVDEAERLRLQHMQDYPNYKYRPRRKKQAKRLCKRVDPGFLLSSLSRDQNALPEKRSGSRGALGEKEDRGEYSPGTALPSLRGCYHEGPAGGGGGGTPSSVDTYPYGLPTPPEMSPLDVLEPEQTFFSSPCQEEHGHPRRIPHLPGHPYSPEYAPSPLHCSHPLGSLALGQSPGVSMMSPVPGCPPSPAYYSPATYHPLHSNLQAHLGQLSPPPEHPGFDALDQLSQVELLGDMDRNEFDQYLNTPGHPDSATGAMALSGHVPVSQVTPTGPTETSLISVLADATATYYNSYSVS
Experiment: single molecule two-colour coincidence spectroscopy

B1: HEY1, made in the cell-free protein production system (natural protein)
chain: MKRAHPEYSSSDSELDETIEVEKESADENGNLSSALGSMSPTTSSQILARKRRRGIIEKRRRDRINNSLSELRRLVPSAFEKQGSAKLEKAEILQMTVDHLKMLHTAGGKGYFDAHALAMDYRSLGFRECLAEVARYLSIIEGLDASDPLRVRLVSHLNNYASQREAASGAHAGLGHIPWGTVFGHHPHIAHPLLLPQNGHGNAGTTASPTEPHHQGRLGSAHPEAPALRAPPSGSLGPVLPVVTSASKLSPPLLSSVASLSAFPFSFGSFHLLSPNALSPSAPTQAANLGKPYRPWGTEIGAF
- stoichiometry N: 1 HEY1 per SOX7 (1:1) and 2 HEY1 per SOX7 (1:2, order as printed)
